experiment: soluble on expression in E. coli; label from the status in PepcDB or PDB records

Soluble on expression in E. coli, not soluble:
MGSDKIHHHHHHMAGSAGGLSASDGDFFLCDLFDPVPKGDLGTMEHPVFSLATRPDRRILTYEHNGVEITVTPSVKGRATIFDKDILIFCTSQLMAAINANRPVSRTLQLTAHDLLLATGRDRSGDGYKRLRAAFERLAGTRITTNLITGGVEVTQGFGLIEAWQIVRRTRNGRMVSVSVTLSEWLYRAALTKSVLTLSRQYFRMRKPLERRIYELARKHCGRQNEWRVSVDTLLKKSGSASPRRVFRAMLREMIAADALPDYHLQEEPGDILRVTLRDAVIEAAGRPIVSSDTLNQARALMPGWDVYVLEAEWRNWWAATGRPHLRSPDKAFLGWVRTQAARA, MGSDKIHHHHHHMAGTTTTRKKFRVAVSGATVDGREIKPEHLRDAAANYSPDVYGARVNVEHYLSPYPDSDFGAMGDVTALSAEDITDGPLSGRTALYAEIEPSARMKQLTDAGKKVFSSIELHPQFALNGKAYVMGLAMTDTPASLGTERLKFATQQRAQVMAFNNQQAEAPMFSDAIEADVIELTAQRGEEGKQWFNRVMGIMGKGKKSDDERFSQVHQAVEVVAQSQADLSDQFSAVEQARASDKQAIEKLTSDFEALRQKLSVTDGSFSHRPPAGGGNNSQLADY, MGSDKIHHHHHHMAHEMIGTQIVTERLVALLESGTEKVLLIDSRPFVEYNTSHILEAININCSKLMKRRLQQDKVLITELIQHSAKHKVDIDCSQKVVVYDQSSQDVASLSSDCFLTVLLGKLEKSFNSVHLLAGGFAEFSRCFPGLCEGKSTLVPTCISQPCLPVANIGPTRILPNLYLGCQRDVLNKELMQQNGIGYVLNASNTCPKPDFIPESHFLRVPVNDSFCEKILPWLDKSVDFIEKAKASNGCVLVHCLAGISRSATIAIAYIMKRMDMSLDEAYRFVKEKRPTISPNFNFLGQLLDYEKKIKNQTGASGPKSKLKLLHLEKPNEPVPAVSEGGQKSETPLSPPCADSATSEAAGQRPVHPASVPSVPSVQPSLLEDSPLVQALSGLHLSADRLEDSNKLKRSFSLDIKSVSYSASMAASLHGFSSSEDALEYYKPSTTLDGTNKLCQFSPVQELSEQTPETSPDKEEASIPKKLQTARPSDSQSKRLHSVRTSSSGTAQRSLLSPLLRSGSVEDNYHTSFLFGLSTSQQHLTKSAGLGLKGWHSDILAPQTSTPSLTSSWYFATESSHFYSASAIYGGSASYSAYSCSQLPTCGDQVYSVRRRQKPSDRADSRRSWHEESPFEKQFKRRSCQMEFGESIMSENRSREELGKVGSQSSFSGSMEIIEVS, MGSDKIHHHHHHMAIISEHHIFLSDDANVGLQTRLKDAITRAIWDGRFAPGDRLPATRALARHLGISRITVSLAYDALLSTGYIVSIARSGYFVASDAPTRMEIVTPGKGDARDRLDWAARLGPVPPALGAQATPADWRRFRYPFIFGEPDVARFPVDDWRDCVRRGLGKRHFEQVADDASDRDDPFLVEQIVRRSVSGRGVAATVDEVLVTAGAQNALWLMVQVLFGGQGGEVAMEDPGYPELRNLLRQQRLTIHPVPVDRDGLKVDRIPEGVRAVFVTPSHQAPTGATMSMARRQALLERAEAEDFVVIEDDYDYEMSYASPSLPALKSLDQRGRVIYIGSFSKSIFPGLRLGYLTADARVVEHARAIRTLSERHPPGLTQRTVAYFLSEGHYNSHSRRMRMRMARRNEVLREALAEHGLTPALRRATGGTTLWLLGPEDLDADALAVSLRDKSVLIEAGSAFYAGGDAPRNRVRLGFATIETARIADGVALIAEAIREQAPTPR, MGSDKIHHHHHHMAIKATDLFKLVSLSYPSATDDGYFVQENRISEADNTYYQRICFVNHRGGTIAYGFDQKHDRHPLLSPDQQWLAFLSQASDKTTQVFLQAVNGGTAKQFSAEKEGVSYFGWQADSQALFIQTTVGAKPKKTDKQWPQPVTVSRVPYKLNGVGLLPEHVAYELRVQRLRQKTSRLVMGREHEFEVGAISPDGQTLAFTAERLPDDPNDFSQATYLLNLADQQVTMVNDQLPQAALSPEAFSADGKQLLLVGSDNHLPNVSQSHLWHYDLATKTLQDVADDIDFDIPGHVNGDFQQDLSEKVADFATADYYLTIGFDHGKTSLYAGGPDEQLTPLIGGRRHVTDYALTPDHHGVVFTESTMTVPSRLSYFDLATEEEHVIYDPNRRVTRDMGLVTPQTFNFQRDGFEIEGWYFPPQQATASHPAILYVHGGPAVGYGYTFFHEMQFLAA, MGSDKIHHHHHHMAKEKTIYVCRSCGTKYAKWQGNCNACGEWNCIDEEKVPAPASGKHAAKSFMPREQDNRPRLLQDVESGDEERIRLGDEEFDRVLGGGIVKGAFVLLGGEPGIGKSTLILQTVLRLPQLRTLYVSGEESARQLKMRAERLGQAMNGCYVYCETNIERILSRAEELTPDLLVIDSIQTVYTEEMESSAGSVGQIRECAALLLKYCKTTGIPVIVIGHITKEGSIAGPKVLEHIVDTVLLFDGDKHHLYRILRGQKNRYGSTSELGIYEMRQDGLRGVENPSEHLITRNREDLSGIAIAVAMEGIRPILIEAQALVSSAIYANPQRSATGFDIRRMNMLLAVLEKRAGFKLIQKDVFLNIAGGIKIADPATDLAVISAVLASSLDIVIPPAVCMTGEVGLSGEIRPVSRIEQRITEARRIGFKEILVPADNFRQEDAGRFGIRLVPVRKVEEAFRHLFSKGRE, MGSDKIHHHHHHMAKRKKDTMEFRFYELPQGESALVLCGESWKRVYGHDELHLHFHNLLEIGICREGDGNMYLDEDIYQYHDGDITFIPENFPHVTVSYGEVVNFWEYIFIDLRSVIEEMFPNNAAFQNDAVSTISKKAFMTNVYQSPVVAGYINSIIRETNEHKEYSQRTIKLLVQGIVIELLRKYDELPEEDNDVVKGTNMSQIATALDYMNKHYSETIKAGELSSLCNMSETHFRRLFESYINMPPMEYLNLIRVQKACELMKKTNEPMELIAQKCGFTTQSTFNRNFRKFLNTSPYQWKINPENYEHKLLNFRISALKGW, MGSDKIHHHHHHMALKGKGQAKSPNVDDNPQLGLESEIPVAPRSKRQTRQAEEVQAKDPYLDSVKELDDVLLKFKKYSKSMSSIENKVFSSSGGCFKSKNERVNAYSFTCSSFADKIEEYSYDPANSFPYKRGVKLVLKESSIYVEVGADTDMYGICVDVCEFSSTAYVLPITNNFEGYLVTRNPSIKMGEILDINNNGVIIKAGGGPPTVINAYALSDSFTINFAPEDEHQDQARYPKQEYSINLIKVAIFGNRGLEKTVTPEAGG, MGSDKIHHHHHHMALKVLFTGADGYVGALLGPYLLEKGIEAVGLDTGFYRKGWLYPTSAPRPAVITKDIRQVTVADLEGFDAVAHLAELSNDPLGQQSPGLTHEINHGGSMHLAEMARKAGARRFVYMSSCSVYGVGQPEQILDETSPVNPQTAYAECKVKVEEDLTRRADSDFEPCFLRNATAYGASPRQRFDIVLNDLCGLAWTTNKITLQSDGSPWRPLVHALDMCQAVWRSLTAPADAIRGQAYNVGSNDQNYRVIEIARIVADSFPGCELEVGQPSADNRSYRVNFDKIQRVLPEFQCEWTAEKGARQMRQVFERIAMTPEEFRAEPYTRLKMLMRLRASKLLDDKLFWANPMVEAVA, MGSDKIHHHHHHMALVKLQTQHFRNLLSAPVEFSPSFNLLYGANGSGKTSVLEAIGYLGLGRSFRVSRHQAVVAHGQSKLTVFGALDSGLLAQESSEKVEHRIGISRDVSLKETQLRVDGEAVRSLSFLAMHLPVSVIDPGVFDIVAGGPGKRRQFLDWLVFHVEPSFSSLWQQVQRVTSQRNQMLRNGRLDESLMRVWDSQYGALAESLSDIRETVFQRFKIAFESVLAELDAPWVEGLKMDFYPGWDRSTALTEVLVNHREQERRMGHTLYGPNRADIRLKFGGRPVAETFSRGQQKTLVILMKIAQGKVLSDLGKQVTFLLDDINAELDVRHRVMLARNLQELRCQVFITSIEHPEPDTLWHDGDTPEYRMFHVEHGQLTEE, MGSDKIHHHHHHMALWQAKQVCPEIIFVPPRMDLYLRFSQMAREIYSEYTDKIEPYGIDEAWLDVSDSGNLKGSGMTIAREISHRIKYELGVTVSIGISWNKIYAKLGSDYKKPDAITEFNRENYKDRIWQLPASDLLYVGRQTNKKLQKLGIRTIGQLAESDEKLLESHFGKIGNVLWAFANGWDEDPVCKEGYEAPVKSIGNSTTTPRDLENDLDVWIIQIALAESVAARLRKHGFKCKTVEITVRDNGLYSFSRQIHLRQPTNITNEIVTAAFQLFKDNYKWEHPIRSLGIRAADLVLDDIPVQLDLFGNQEKKEKLEKLDRTVDEIRRRFGYFSIQRAAMYQDKVLSHLDAGTHTVHPHSYFHG

— the DeepSol protein solubility set
